Data on 13 sequences can be found in paper PMC7957560.

The series deals with viral hemagglutinin on virions (vHA) (Influenza A virus A/chicken/Kurgan/3654at/2005 (H5N1)). Nature of the series: BLI. The conditions noted are these: BLI at 30 C in sodium-potassium phosphate buffer pH 7.4 ([…].

For orientation: Kd means the concentration at which binding is half-saturated. Low values mean a tighter complex, high ones a looser complex. As for GGGTGGGAGGGTGGG [G7nt-T_A_T], the Kd came to 0.07 nM.
The figure for GGGTGGGTGGGTGGG [G7nt-T_T_T] is 0.6 nM; for GGGTGGGAGGGCGGG [G7nt-T_A_C] it is 0.3 nM.
As for GGGTTATTTTGGGAGGGCGGGGGTT [G7n5t], the figure is 0.04 nM; as for TTGGGGTTAGGGAGGGCGGGGGTT [G7-TTA_A_C], 0.04 nM.
The figure for GGGAGGGAGGGAGGG [G7nt-A_A_A] is 0.2 nM.
In the case of GGGAGGGTGGGTGGG [G7nt-A_T_T], the dissociation constant Kd is 0.2 nM.
The figure for “TTGGGGTTATTAAGGGAGGGCGGGGGTT [G7-TTATTAA_A_C]” is 0.09 nM; for GGGTGGGTGGGAGGG [G7nt-T_T_A] it is 0.7 nM; for TTGGGGTTATTTTGGGAGGGCGGGGGTT [RHA0385] it is 0.05 nM.
Take GGGTTATTTTGGGAGGGCGGG [G7nt]: the Kd worked out at 0.13 nM.
As for TTGGGGTTATTTTGGGAGGGCGGG [G7n3t], the Kd stood at 0.16 nM.
In turn, GGGAGGGAGGGCGGG [G7nt-A_A_C] had a Kd of 0.3 nM.
